Reference: patent US6361968, “Extension of a protein-protein interaction surface to inactive the function of a cellular protein” (The United States of America as represented by the …)

T1: VBP-C/EBP chimera (VBP basic region, C/EBP leucine zipper) (Gallus gallus / Rattus norvegicus?)
T1 chain: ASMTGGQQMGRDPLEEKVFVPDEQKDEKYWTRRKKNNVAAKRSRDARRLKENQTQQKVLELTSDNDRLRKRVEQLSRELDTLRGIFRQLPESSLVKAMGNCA

B1: 28 bp C/EBP site probe (dsDNA)
DNA 1: GTCAGTCAGATTGCGCAATATCGGTCAG
DNA 2: CTGACCGATATTGCGCAATCTGACTGAC
B2: C/EBP consensus site in CAT reporter promoter (dsDNA)
DNA 1: ATTGCGCAAT
DNA 2: ATTGCGCAAT

Key:
[1] = molecular target: T1, VBP-C/EBP chimera (VBP basic region, …); experiment: competition; calculated from displacement by 0-3heptad-F dominant negatives, Trp fluorescence, 25 C, 150 mM KCl, 12.5 mM phosphate pH 7.4; settings: chain copies: 2 (stated)
Method: FIG. 14A: 3heptad-F inhibits C/EBP DNA binding. […] Protein was diluted four-fold in the successive lanes. […] FIG. 14B: Displacement of VBP-C/EBP from DNA by five dominant negatives (DNs) assayed by fluorescence. Fluorescence of a single tryptophan located in the basic region of VBP-C/EBP increased upon DNA binding (minutes 5–10). The addition of 1.1 molar equivalents of the F zipper or of the four different acidic extension caused a decrease in fluorescence. After 20 minutes, 10 more molar equivalents were added, causing an additional displacement of VBP-C/EBP from the DNA. 4heptad-F, shown in bold, causes the most dramatic displacement of VBP:C/EBP. […] This is not observed for the other four mixtures which return to the VBP-C/EBP-only baseline.

[2] = molecular target: C/EBPalpha (UniProt P05554 P05554:1-358); experiment: cell_activity; CAT transactivation in HepG2; completely inhibited by 3heptad-F; settings: tags: N-terminal FLAG; chain copies: 2 (inferred)
Excerpt: Human hepatoma cells (HepG2) were transiently transfected with three plasmids, a chloramphenicol acetyl transferase (CAT) expression plasmid driven by a single C/EBP cis element, the C/EBP transactivator, and different DNs. The histogram presents the extent of transactivation observed in the presence of different combinations of transactivator and dominant-negatives. In the absence of any DN, expressed C/EBP transactivated a single C/EBP site approximately 10 fold. […] This protein was able to transactivate a C/EBP containing promoter and was not inhibited by 3heptad-F.
In these experiments, 10 μg of reporter plasmid, 0.3 μg of transactivator, and 5 μg of DN were added to each transient transfection. […] Sheared salmon sperm DNA was added to bring the DNA concentrations to 20 μg. Calcium phosphate transfections were performed following the manufacturer's instructions (Gibco).

Binder | Kd [1] [nM] | activity [2] [fold]
B1 | 0.1 | –
B2 | – | ~10
